This is an account of results in patent publication US20190382484A1 (Chugai, published 2019).

The labels stand for the following.
B1: MRAH-DA303v2/MRAL-k0 (antibody, human IgG1, kappa)
heavy: QVQLQESGPGLVRPSQTLSLTCTVSGYSITSDHAWSWVRQPPGRGLEWIGYISYSGITTYNPSLKSRVTMLRDTSKNQFSLRLSSVTAADTAVYYCARSLARTTAMDYWGQGSLVTVSSASTKGPSVFPLAPSSKSTSGGTAALGCLVKDYFPEPVTVSWNSGALTSGVHTFPAVLQSSGLYSLSSVVTVPSSSLGTQTYICNVNHKPSNTKVDKKVEPKSCDKTHTSPPSPAPEYQWGPMVFLFPPKPKDTLMISRTPEVTCVVVDVSDEEPEVKFNWYVDGVEVHNAKTKPREEQYNATYRVVSVLTVLHQDWLNGKEYKCKVSNKALPAPIEKTISKAKGQPREPQVYTLPPSRKELTKNQVSLTCLVKGFYPSDIAVEWESNGQPENNYKTTPPYLDSDGSFFLYSDLTVDKSRWQQGNVFSCSVMHEALHNHYTQKSLSLSP
light: not shown
notes: Antibody-half molecule (one H chain, one L chain); L chain MRAL-k0; also called A1; antibody-half molecule A1
B2: MRAH-DA405v2/MRAL-k0 (antibody, human IgG1, kappa)
heavy: QVQLQESGPGLVRPSQTLSLTCTVSGYSITSDHAWSWVRQPPGRGLEWIGYISYSGITTYNPSLKSRVTMLRDTSKNQFSLRLSSVTAADTAVYYCARSLARTTAMDYWGQGSLVTVSSASTKGPSVFPLAPSSKSTSGGTAALGCLVKDYFPEPVTVSWNSGALTSGVHTFPAVLQSSGLYSLSSVVTVPSSSLGTQTYICNVNHKPSNTKVDKKVEPKSCDKTHTSPPSPAPEYQWGPMVFLFPPKPKDTLMISRTPEVTCVVVDVSDEEPEVKFNWYVDGVEVHNAKTKPREEQYNATYRVVSVLTVLHQDWLNGKEYKCKVSNKALPAPIEKTISKAKGQPREPQVYTLPPSRKELTKNQVSLTCLVKGFYPSDIAVEWESNGQPENNYKTTPPYLDSDGSFFLYSTLTVDKSRWQQGNVFSCSVMHEALHNHYTQKSLSLSP
light: not shown
notes: Antibody-half molecule (one H chain, one L chain); also called A3; antibody-half molecule A3
B3: MRAH-DB405v2/MRAL-k0 (antibody, human IgG1, kappa)
heavy: QVQLQESGPGLVRPSQTLSLTCTVSGYSITSDHAWSWVRQPPGRGLEWIGYISYSGITTYNPSLKSRVTMLRDTSKNQFSLRLSSVTAADTAVYYCARSLARTTAMDYWGQGSLVTVSSASTKGPSVFPLAPSSKSTSGGTAALGCLVKDYFPEPVTVSWNSGALTSGVHTFPAVLQSSGLYSLSSVVTVPSSSLGTQTYICNVNHKPSNTKVDKKVEPKSCDKTHTSPPSPAPELLGGPSVFLFPPKPKDTLMISRTPEVTCVVVDVSHEEPEVKFNWYVDGVEVHNAKTKPREEQYNSTYRVVSVLTVLHQDWLNGKEYKCKVSNDALPMPIEETISKAKGQPREPQVYTLPPSRDELTKNQVSLTCLVKGFYPSDIAVEWESNGQPENNYKTTPPYLDSDGSFFLYSTLTVDKSRWQQGNVFSCSVMHEALHNHYTQESLSLSP
light: not shown
notes: Antibody-half molecule (one H chain, one L chain); also called B3; antibody-half molecule B3
B4: MRAH-DB402v2/MRAL-k0 (antibody, human IgG1, kappa)
heavy: QVQLQESGPGLVRPSQTLSLTCTVSGYSITSDHAWSWVRQPPGRGLEWIGYISYSGITTYNPSLKSRVTMLRDTSKNQFSLRLSSVTAADTAVYYCARSLARTTAMDYWGQGSLVTVSSASTKGPSVFPLAPSSKSTSGGTAALGCLVKDYFPEPVTVSWNSGALTSGVHTFPAVLQSSGLYSLSSVVTVPSSSLGTQTYICNVNHKPSNTKVDKKVEPKSCDKTHTSPPSPAPELLGGPSVFLFPPKPKDTLMISRTPEVTCVVVDVSHEEPEVKFNWYVDGVEVHNAKTKPREEQYNSTYRVVSVLTVLHQDWLNGKEYKCKVSNDALPMPIEETISKAKGQPREPQVYTLPPSRDELTKNQVSLTCLVKGFYPSDIAVEWESNGQPENNYKTTPPYLDSDGSFFLYSHLTVDKSRWQQGNVFSCSVMHEALHNHYTQESLSLSP
light: not shown
notes: Antibody-half molecule (one H chain, one L chain); also called B2; antibody-half molecule B2
B5: MRAH-DA430v2/MRAL-k0 (antibody, human IgG1, kappa)
heavy: QVQLQESGPGLVRPSQTLSLTCTVSGYSITSDHAWSWVRQPPGRGLEWIGYISYSGITTYNPSLKSRVTMLRDTSKNQFSLRLSSVTAADTAVYYCARSLARTTAMDYWGQGSLVTVSSASTKGPSVFPLAPSSKSTSGGTAALGCLVKDYFPEPVTVSWNSGALTSGVHTFPAVLQSSGLYSLSSVVTVPSSSLGTQTYICNVNHKPSNTKVDKKVEPKSCDKTHTSPPSPAPEYQWGPMVFLFPPKPKDTLMISRTPEVTCVVVDVSDEEPEVKFNWYVDGVEVHNAKTKPREEQYNATYRVVSVLTVLHQDWLNGKEYKCKVSNKALPAPIEKTISKAKGQPREPQVYTLPPSRKLLTKNQVSLTCLVKGFYPSDIAVEWESNGQPENNYKTTPPYLDSDGSFFLYSDLTVDKSRWQQGNVFSCSVMHEALHNHYTQKSLSLSP
light: not shown
notes: Antibody-half molecule (one H chain, one L chain); also called A5; antibody-half molecule A5
B6: MRAH-DB220v2/MRAL-k0 (antibody, human IgG1, kappa)
heavy: QVQLQESGPGLVRPSQTLSLTCTVSGYSITSDHAWSWVRQPPGRGLEWIGYISYSGITTYNPSLKSRVTMLRDTSKNQFSLRLSSVTAADTAVYYCARSLARTTAMDYWGQGSLVTVSSASTKGPSVFPLAPSSKSTSGGTAALGCLVKDYFPEPVTVSWNSGALTSGVHTFPAVLQSSGLYSLSSVVTVPSSSLGTQTYICNVNHKPSNTKVDKKVEPKSCDKTHTSPPSPAPELLGGPSVFLFPPKPKDTLMISRTPEVTCVVVDVSHEEPEVKFNWYVDGVEVHNAKTKPREEQYNSTYRVVSVLTVLHQDWLNGKEYKCKVSNDALPMPIEETISKAKGQPREPQVYTLPPSRDELTKNQVSLTCLVKGFYPSDIAVEWESNGQPENNYKTTPPYLDSDGSFFLYSDLTVDKSRWQQGNVFSCSVMHEALHNHYTQESLSLSP
light: not shown
notes: Antibody-half molecule (one H chain, one L chain); also called B1; antibody-half molecule B1
B7: MRAH-DA402v2/MRAL-k0 (antibody, human IgG1, kappa)
heavy: QVQLQESGPGLVRPSQTLSLTCTVSGYSITSDHAWSWVRQPPGRGLEWIGYISYSGITTYNPSLKSRVTMLRDTSKNQFSLRLSSVTAADTAVYYCARSLARTTAMDYWGQGSLVTVSSASTKGPSVFPLAPSSKSTSGGTAALGCLVKDYFPEPVTVSWNSGALTSGVHTFPAVLQSSGLYSLSSVVTVPSSSLGTQTYICNVNHKPSNTKVDKKVEPKSCDKTHTSPPSPAPEYQWGPMVFLFPPKPKDTLMISRTPEVTCVVVDVSDEEPEVKFNWYVDGVEVHNAKTKPREEQYNATYRVVSVLTVLHQDWLNGKEYKCKVSNKALPAPIEKTISKAKGQPREPQVYTLPPSRKELTKNQVSLTCLVKGFYPSDIAVEWESNGQPENNYKTTPPYLDSDGSFFLYSHLTVDKSRWQQGNVFSCSVMHEALHNHYTQKSLSLSP
light: not shown
notes: Antibody-half molecule (one H chain, one L chain); also called A2; antibody-half molecule A2
B8: MRAH-DB424v2/MRAL-k0 (antibody, human IgG1, kappa)
heavy: QVQLQESGPGLVRPSQTLSLTCTVSGYSITSDHAWSWVRQPPGRGLEWIGYISYSGITTYNPSLKSRVTMLRDTSKNQFSLRLSSVTAADTAVYYCARSLARTTAMDYWGQGSLVTVSSASTKGPSVFPLAPSSKSTSGGTAALGCLVKDYFPEPVTVSWNSGALTSGVHTFPAVLQSSGLYSLSSVVTVPSSSLGTQTYICNVNHKPSNTKVDKKVEPKSCDKTHTSPPSPAPELLGGPSVFLFPPKPKDTLMISRTPEVTCVVVDVSHEEPEVKFNWYVDGVEVHNAKTKPREEQYNSTYRVVSVLTVLHQDWLNGKEYKCKVSNDALPMPIEETISKAKGQPREPQVYTLPPSRDNLTKNQVSLTCLVKGFYPSDIAVEWESNGQPENNYKTTPPYLDSDGSFFLYSDLTVDKSRWQQGNVFSCSVMHEALHNHYTQESLSLSP
light: not shown
notes: Antibody-half molecule (one H chain, one L chain); also called antibody-half molecule B4
B9: MRAH-DB430v2/MRAL-k0 (antibody, human IgG1, kappa)
heavy: QVQLQESGPGLVRPSQTLSLTCTVSGYSITSDHAWSWVRQPPGRGLEWIGYISYSGITTYNPSLKSRVTMLRDTSKNQFSLRLSSVTAADTAVYYCARSLARTTAMDYWGQGSLVTVSSASTKGPSVFPLAPSSKSTSGGTAALGCLVKDYFPEPVTVSWNSGALTSGVHTFPAVLQSSGLYSLSSVVTVPSSSLGTQTYICNVNHKPSNTKVDKKVEPKSCDKTHTSPPSPAPELLGGPSVFLFPPKPKDTLMISRTPEVTCVVVDVSHEEPEVKFNWYVDGVEVHNAKTKPREEQYNSTYRVVSVLTVLHQDWLNGKEYKCKVSNDALPMPIEETISKAKGQPREPQVYTLPPSRDLLTKNQVSLTCLVKGFYPSDIAVEWESNGQPENNYKTTPPYLDSDGSFFLYSDLTVDKSRWQQGNVFSCSVMHEALHNHYTQESLSLSP
light: not shown
notes: Antibody-half molecule (one H chain, one L chain); also called B5; antibody-half molecule B5
B10: MRAH-DA424v2/MRAL-k0 (antibody, human IgG1, kappa)
heavy: QVQLQESGPGLVRPSQTLSLTCTVSGYSITSDHAWSWVRQPPGRGLEWIGYISYSGITTYNPSLKSRVTMLRDTSKNQFSLRLSSVTAADTAVYYCARSLARTTAMDYWGQGSLVTVSSASTKGPSVFPLAPSSKSTSGGTAALGCLVKDYFPEPVTVSWNSGALTSGVHTFPAVLQSSGLYSLSSVVTVPSSSLGTQTYICNVNHKPSNTKVDKKVEPKSCDKTHTSPPSPAPEYQWGPMVFLFPPKPKDTLMISRTPEVTCVVVDVSDEEPEVKFNWYVDGVEVHNAKTKPREEQYNATYRVVSVLTVLHQDWLNGKEYKCKVSNKALPAPIEKTISKAKGQPREPQVYTLPPSRKNLTKNQVSLTCLVKGFYPSDIAVEWESNGQPENNYKTTPPYLDSDGSFFLYSDLTVDKSRWQQGNVFSCSVMHEALHNHYTQKSLSLSP
light: not shown
notes: Antibody-half molecule (one H chain, one L chain); also called antibody-half molecule A4

The target of the assay is T1, FcγRIIIa extracellular domain (UniProt P08637 17-208, limits assumed).
T1 construct: extracellular domain; Purified over HisTrap, so a His tag is implied
T1 sequence (P08637 17-208 limits assumed): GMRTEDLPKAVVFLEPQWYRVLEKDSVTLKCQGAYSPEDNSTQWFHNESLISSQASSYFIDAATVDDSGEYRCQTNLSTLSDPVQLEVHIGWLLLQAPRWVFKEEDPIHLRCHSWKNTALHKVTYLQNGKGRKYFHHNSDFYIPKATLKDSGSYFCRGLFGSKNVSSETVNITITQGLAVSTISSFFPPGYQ
Kind of assay: SPR (Biacore T200), half molecule captured via biotinylated antigen peptide on CAP chip, FcγR as analyte.
For the molecule B1, the binding result is recorded as “no binding”.
With B2 the entry was “no binding”; with B3, “no binding”; with B4, “no binding”.
On to B5, for which the binding result was “no binding”.
In the case of B6, the binding result is “no binding”.
The value for B7 was “no binding”; that for B8 was “no binding”.
With B9 the entry was “no binding”; with B10, “no binding”.
